Where “and” joins values, the source holds several entries; their conditions need not be identical. Equal entries are not always repeated.
Experiments:
[1] = biological target: T1, full-length mouse NLRP3 (FLAG-mScarlet tag removed), double ring cage (mouse), Q8R4B8; assay: cryo-EM structure; conditions: remark: other sources report otherwise
T1 chain: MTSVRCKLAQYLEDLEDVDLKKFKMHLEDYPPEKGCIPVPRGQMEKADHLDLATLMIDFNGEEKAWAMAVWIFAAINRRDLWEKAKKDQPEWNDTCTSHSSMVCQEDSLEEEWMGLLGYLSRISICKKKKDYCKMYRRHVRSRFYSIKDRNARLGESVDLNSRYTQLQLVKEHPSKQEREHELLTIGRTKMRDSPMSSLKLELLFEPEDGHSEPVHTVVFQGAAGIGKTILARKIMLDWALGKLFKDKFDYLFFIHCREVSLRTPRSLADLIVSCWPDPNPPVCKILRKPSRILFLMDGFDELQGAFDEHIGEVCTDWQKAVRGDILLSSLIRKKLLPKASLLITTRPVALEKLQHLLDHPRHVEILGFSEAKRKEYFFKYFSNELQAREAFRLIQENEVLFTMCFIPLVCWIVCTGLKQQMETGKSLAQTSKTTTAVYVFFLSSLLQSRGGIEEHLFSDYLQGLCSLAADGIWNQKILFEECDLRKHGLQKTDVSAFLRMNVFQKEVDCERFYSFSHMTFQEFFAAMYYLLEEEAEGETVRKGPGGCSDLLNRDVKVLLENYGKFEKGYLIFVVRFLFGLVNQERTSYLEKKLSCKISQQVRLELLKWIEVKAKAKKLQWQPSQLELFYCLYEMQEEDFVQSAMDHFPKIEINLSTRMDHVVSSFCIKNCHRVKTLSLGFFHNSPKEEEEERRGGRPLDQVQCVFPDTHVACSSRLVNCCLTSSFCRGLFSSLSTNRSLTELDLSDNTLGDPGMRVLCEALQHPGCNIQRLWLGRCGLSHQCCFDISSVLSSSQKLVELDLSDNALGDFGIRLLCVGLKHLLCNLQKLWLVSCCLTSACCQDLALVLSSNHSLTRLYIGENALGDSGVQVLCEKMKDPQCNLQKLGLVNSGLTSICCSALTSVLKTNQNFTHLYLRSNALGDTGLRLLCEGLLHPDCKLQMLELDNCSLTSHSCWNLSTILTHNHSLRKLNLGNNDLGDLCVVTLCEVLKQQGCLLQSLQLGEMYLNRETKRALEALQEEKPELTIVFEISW

[2] = biological target: T1, full-length mouse NLRP3 (FLAG-mScarlet …); assay: cryo-EM structure; conditions: remark: other sources report otherwise

- stoichiometry N [1]: 12
- stoichiometry N [2]: 12 and 14 and 16
B1: full-length mouse NLRP3 (FLAG-mScarlet tag removed), double ring cage, Q8R4B8 1-1033 (natural protein)
chain: T1 chain
